B1: ADD1 (parent)
chain: FASDGDSGTCSPLRHSFQKQQREK
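Further: lentivirally expressed fusions sorted by FACS into six bins by GFP to DsRed ratio, PSI derived from sequencing read proportions per bin multiplied by bin number.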

The variants in this data set derive from B1. Nature of the data set: protein stability index of a GFP-peptide fusion (GPS, HEK-293T) (PSI 1-6); higher = more stable. To be noted: c terminus: a fixed tail appended.
With FPSDGDSGTCSPLRHSFQKQQREK [A2P], the protein stability index was 4.27.
To FESDGDSGTCSPLRHSFQKQQREK [A2E] belongs 5.18.
The same measure for FNSDGDSGTCSPLRHSFQKQQREK [A2N]: 4.79; for FDSDGDSGTCSPLRHSFQKQQREK [A2D]: 5.17; for FCSDGDSGTCSPLRHSFQKQQREK [A2C]: 3.54.
As to FLSDGDSGTCSPLRHSFQKQQREK [A2L], the protein stability index was 3.7.
On to FWSDGDSGTCSPLRHSFQKQQREK [A2W], for which the protein stability index stood at 4.27.
The same measure for FSSDGDSGTCSPLRHSFQKQQREK [A2S]: 4.47; for FRSDGDSGTCSPLRHSFQKQQREK [A2R]: 4.38.
The same measure for FYSDGDSGTCSPLRHSFQKQQREK [A2Y]: 4.33; for FTSDGDSGTCSPLRHSFQKQQREK [A2T]: 4.39; for FFSDGDSGTCSPLRHSFQKQQREK [A2F]: 4.6.
In the case of FKSDGDSGTCSPLRHSFQKQQREK [A2K], the protein stability index was 4.66.
In the case of FISDGDSGTCSPLRHSFQKQQREK [A2I], the protein stability index was 2.84.
Consider FHSDGDSGTCSPLRHSFQKQQREK [A2H], for which the protein stability index turned out to be 2.76.
With FGSDGDSGTCSPLRHSFQKQQREK [A2G], the protein stability index is 4.11.
In the case of FMSDGDSGTCSPLRHSFQKQQREK [A2M], the protein stability index is 3.86.
Take FQSDGDSGTCSPLRHSFQKQQREK [A2Q]: the protein stability index is 3.61.
As for FVSDGDSGTCSPLRHSFQKQQREK [A2V], the protein stability index was 3.07.
With FASCGDSGTCSPLRHSFQKQQREK [D4C], the protein stability index stood at 2.72.
FASLGDSGTCSPLRHSFQKQQREK [D4L]: the protein stability index stood at 3.48.
Regarding FASAGDSGTCSPLRHSFQKQQREK [D4A], the protein stability index worked out at 2.14.
Regarding FASIGDSGTCSPLRHSFQKQQREK [D4I], the protein stability index was 2.54.
For FASQGDSGTCSPLRHSFQKQQREK [D4Q], the protein stability index turned out to be 3.14.
As to FASYGDSGTCSPLRHSFQKQQREK [D4Y], the protein stability index was determined as 2.66.
For the variant FASHGDSGTCSPLRHSFQKQQREK [D4H], the protein stability index was determined as 3.08.
For the variant FASTGDSGTCSPLRHSFQKQQREK [D4T], the protein stability index worked out at 2.69.
In the case of FASFGDSGTCSPLRHSFQKQQREK [D4F], the protein stability index came to 2.41.
Consider FASVGDSGTCSPLRHSFQKQQREK [D4V], for which the protein stability index came to 2.44.
Regarding FASPGDSGTCSPLRHSFQKQQREK [D4P], the protein stability index was 4.26.
Turning to FASKGDSGTCSPLRHSFQKQQREK [D4K], the protein stability index stood at 2.51.
To FASMGDSGTCSPLRHSFQKQQREK [D4M] belongs 2.54; to FASRGDSGTCSPLRHSFQKQQREK [D4R], 2.81; to FASGGDSGTCSPLRHSFQKQQREK [D4G], 2.07.
Turning to FASNGDSGTCSPLRHSFQKQQREK [D4N], the protein stability index is 2.99.
Take FASEGDSGTCSPLRHSFQKQQREK [D4E]: the protein stability index is 4.37.
For FASDGDAGTCSPLRHSFQKQQREK [S7A], the protein stability index is 3.82.
For the variant FASDGDEGTCSPLRHSFQKQQREK [S7E], the protein stability index worked out at 4.26.
In the case of FASDGDDGTCSPLRHSFQKQQREK [S7D], the protein stability index stood at 4.18.
On to FASDGDFGTCSPLRHSFQKQQREK [S7F], for which the protein stability index is 2.72.
In the case of FASDGDCGTCSPLRHSFQKQQREK [S7C], the protein stability index is 2.96.
Regarding HASDGDSGTCSPLRHSFQKQQREK [F1H], the protein stability index was 5.18.
Regarding MASDGDSGTCSPLRHSFQKQQREK [F1M], the protein stability index is 5.2.
As to YASDGDSGTCSPLRHSFQKQQREK [F1Y], the protein stability index worked out at 4.07.
To EASDGDSGTCSPLRHSFQKQQREK [F1E] belongs 5.62; to PASDGDSGTCSPLRHSFQKQQREK [F1P], 5.76; to GASDGDSGTCSPLRHSFQKQQREK [F1G], 4.99.
Regarding NASDGDSGTCSPLRHSFQKQQREK [F1N], the protein stability index came to 5.19.
Turning to IASDGDSGTCSPLRHSFQKQQREK [F1I], the protein stability index is 5.29.
Turning to DASDGDSGTCSPLRHSFQKQQREK [F1D], the protein stability index was 4.91.
On to CASDGDSGTCSPLRHSFQKQQREK [F1C], for which the protein stability index is 4.17.
As to QASDGDSGTCSPLRHSFQKQQREK [F1Q], the protein stability index came out at 4.57.
KASDGDSGTCSPLRHSFQKQQREK [F1K]: the protein stability index was 4.22.
Regarding SASDGDSGTCSPLRHSFQKQQREK [F1S], the protein stability index was found to be 5.12.
In the case of RASDGDSGTCSPLRHSFQKQQREK [F1R], the protein stability index is 5.07.
TASDGDSGTCSPLRHSFQKQQREK [F1T]: the protein stability index came to 5.55.
As for WASDGDSGTCSPLRHSFQKQQREK [F1W], the protein stability index turned out to be 5.13.
For the variant FASDMDSGTCSPLRHSFQKQQREK [G5M], the protein stability index came to 3.62.
As for FASDYDSGTCSPLRHSFQKQQREK [G5Y], the protein stability index was determined as 3.42.
The same measure for FASDIDSGTCSPLRHSFQKQQREK [G5I]: 3.68.
The same measure for FASDSDSGTCSPLRHSFQKQQREK [G5S]: 4.17; for FASDVDSGTCSPLRHSFQKQQREK [G5V]: 3.94; for FASDFDSGTCSPLRHSFQKQQREK [G5F]: 4.01.
To FASDCDSGTCSPLRHSFQKQQREK [G5C] belongs 3.57.
In the case of FASDHDSGTCSPLRHSFQKQQREK [G5H], the protein stability index is 3.43.
To FASDADSGTCSPLRHSFQKQQREK [G5A] belongs 4.17; to FASDPDSGTCSPLRHSFQKQQREK [G5P], 3.67.
For the variant FASDTDSGTCSPLRHSFQKQQREK [G5T], the protein stability index came to 4.37.
For FASDRDSGTCSPLRHSFQKQQREK [G5R], the protein stability index was found to be 3.35.
To FASDKDSGTCSPLRHSFQKQQREK [G5K] belongs 3.76; to FASDWDSGTCSPLRHSFQKQQREK [G5W], 1.56; to FASDQDSGTCSPLRHSFQKQQREK [G5Q], 4.66.
On to FASDNDSGTCSPLRHSFQKQQREK [G5N], for which the protein stability index is 4.29.
With FASDEDSGTCSPLRHSFQKQQREK [G5E], the protein stability index came out at 4.74.
For FASDLDSGTCSPLRHSFQKQQREK [G5L], the protein stability index came out at 3.83.
For FASDDDSGTCSPLRHSFQKQQREK [G5D], the protein stability index stood at 4.29.
The same measure for FASDGSSGTCSPLRHSFQKQQREK [D6S]: 3.12; for FASDGTSGTCSPLRHSFQKQQREK [D6T]: 2.9; for FASDGMSGTCSPLRHSFQKQQREK [D6M]: 2.27.
The same measure for FASDGASGTCSPLRHSFQKQQREK [D6A]: 2.41; for FASDGQSGTCSPLRHSFQKQQREK [D6Q]: 3.17.
The same measure for FASDGRSGTCSPLRHSFQKQQREK [D6R]: 3.44.
Consider FASDGPSGTCSPLRHSFQKQQREK [D6P], for which the protein stability index came out at 3.34.
In the case of FASDGESGTCSPLRHSFQKQQREK [D6E], the protein stability index came to 3.98.
For FASDGYSGTCSPLRHSFQKQQREK [D6Y], the protein stability index was 1.7.
In the case of FASDGFSGTCSPLRHSFQKQQREK [D6F], the protein stability index is 1.97.
Turning to FASDGVSGTCSPLRHSFQKQQREK [D6V], the protein stability index was 3.13.
With FASDGNSGTCSPLRHSFQKQQREK [D6N], the protein stability index amounted to 3.18.
To FASDGWSGTCSPLRHSFQKQQREK [D6W] belongs 3.8.
For FASDGLSGTCSPLRHSFQKQQREK [D6L], the protein stability index turned out to be 2.6.
As to FASDGISGTCSPLRHSFQKQQREK [D6I], the protein stability index was 1.92.
Regarding FASDGHSGTCSPLRHSFQKQQREK [D6H], the protein stability index came out at 2.29.
As for FASDGGSGTCSPLRHSFQKQQREK [D6G], the protein stability index stood at 3.31.
For the variant FASDGKSGTCSPLRHSFQKQQREK [D6K], the protein stability index was 2.8.
